Results published in patent US20040005320A1 (ZymoGenetics, published 2004).

Assays:
IL-20RB = target: T1, IL-20RB (human, UniProt Q6UXL0 30-311); test: radiolabeled ligand binding on stably transfected BHK cells
T1 construct: Expressed alone on stably transfected BHK cells; also called IL-20RB subunit alone
T1 sequence: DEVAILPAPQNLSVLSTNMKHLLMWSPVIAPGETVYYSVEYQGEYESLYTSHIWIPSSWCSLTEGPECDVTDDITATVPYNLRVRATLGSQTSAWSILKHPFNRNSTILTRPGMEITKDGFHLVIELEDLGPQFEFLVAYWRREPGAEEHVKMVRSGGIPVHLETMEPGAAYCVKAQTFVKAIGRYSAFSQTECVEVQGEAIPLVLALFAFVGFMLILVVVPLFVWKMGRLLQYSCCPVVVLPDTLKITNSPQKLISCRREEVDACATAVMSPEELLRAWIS
Procedure: (§1) The specificity and affinity of IL-20 for its receptor was determined using BHK cells stably transfected with IL-20RA, IL-20RB or both receptor subunits. […] Binding of ¹²⁵I-labeled IL-20 was eliminated in the presence of 100-fold excess of unlabeled IL-20 but not with 100-fold excess of the unrelated cytokine, IL-21.

IL-20RA = target: T2, IL-20RA (human, UniProt Q9UHF4 30-553); test: as above
T2 construct: Expressed alone on stably transfected BHK cells; also called Zcytor7; IL-20RA subunit alone
T2 sequence: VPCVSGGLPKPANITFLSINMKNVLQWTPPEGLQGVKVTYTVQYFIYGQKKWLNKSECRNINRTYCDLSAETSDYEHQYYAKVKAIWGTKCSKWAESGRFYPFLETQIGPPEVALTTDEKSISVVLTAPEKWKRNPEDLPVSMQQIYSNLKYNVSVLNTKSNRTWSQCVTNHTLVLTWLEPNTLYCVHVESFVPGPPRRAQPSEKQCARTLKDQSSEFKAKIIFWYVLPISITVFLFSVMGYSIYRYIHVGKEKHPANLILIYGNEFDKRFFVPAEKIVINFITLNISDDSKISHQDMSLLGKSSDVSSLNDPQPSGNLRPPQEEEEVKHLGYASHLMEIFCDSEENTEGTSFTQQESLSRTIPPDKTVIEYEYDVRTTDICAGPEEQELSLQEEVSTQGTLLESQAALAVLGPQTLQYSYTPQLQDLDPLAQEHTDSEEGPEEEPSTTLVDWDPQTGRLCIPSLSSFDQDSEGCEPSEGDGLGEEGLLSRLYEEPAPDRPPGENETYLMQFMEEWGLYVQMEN
Procedure: as §1

[1] = target: T3, IL-20RA/IL-20RB heterodimeric receptor (human, UniProt Q9UHF4 30-553; Q6UXL0 30-311); test: 125I-labeled IL-20 binding on BHK cells expressing IL-20RA and IL-20RB
T3 construct: Both subunits were co-expressed on transfected COS, BHK or BaF3 cells, or were endogenous on human HaCaT keratinocytes; also called IL-20RB/IL-20RA heterodimer; IL-20 receptor
T3 sequence 1: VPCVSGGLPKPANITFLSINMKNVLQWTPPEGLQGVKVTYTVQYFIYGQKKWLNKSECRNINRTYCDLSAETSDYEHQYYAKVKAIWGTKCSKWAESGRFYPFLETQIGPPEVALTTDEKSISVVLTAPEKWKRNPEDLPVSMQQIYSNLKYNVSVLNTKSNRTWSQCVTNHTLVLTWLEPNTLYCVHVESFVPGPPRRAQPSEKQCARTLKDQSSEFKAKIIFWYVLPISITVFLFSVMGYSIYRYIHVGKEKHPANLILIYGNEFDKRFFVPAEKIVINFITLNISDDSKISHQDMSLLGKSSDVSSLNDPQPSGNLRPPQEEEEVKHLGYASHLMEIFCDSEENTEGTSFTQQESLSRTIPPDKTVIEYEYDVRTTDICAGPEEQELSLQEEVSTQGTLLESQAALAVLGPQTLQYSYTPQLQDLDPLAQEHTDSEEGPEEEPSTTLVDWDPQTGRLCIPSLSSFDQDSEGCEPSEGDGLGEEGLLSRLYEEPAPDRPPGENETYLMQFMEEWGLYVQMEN
T3 sequence 2: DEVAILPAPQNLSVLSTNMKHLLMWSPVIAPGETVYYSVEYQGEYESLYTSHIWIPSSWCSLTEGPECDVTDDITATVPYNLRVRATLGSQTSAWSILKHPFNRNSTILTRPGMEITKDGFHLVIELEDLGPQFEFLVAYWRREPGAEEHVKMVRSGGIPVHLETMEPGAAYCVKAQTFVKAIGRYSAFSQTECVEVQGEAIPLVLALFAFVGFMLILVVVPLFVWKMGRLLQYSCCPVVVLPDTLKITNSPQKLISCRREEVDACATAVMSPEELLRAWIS
Procedure: as §1

B1: IL-20 (ligand, UniProt Q9NYY1 25-176, looked up)
chain: LKTLNLGSCVIATNLQEIRNGFSEIRGSVQAKDGNIDIRILRRTESLQDTKPANRCCLLRHLLRLYLDRVFKNYQTPDHYTLRKISSLANSFLTIKKDLRLCHAHMTCHCGEEAMKKYSQILSHFEKLEPQAAVVKALGELDILLQWMEETE
notes: also called biotin-labeled IL-20 protein; biotinylated IL-20
For B1, the binding result (IL-20RB) was “no binding”, the binding result (IL-20RA) was “no binding” and the Kd [1] was ~1.5 nM.
